Reference: the nanobody polyreactivity screen of Harvey et al. (2022)

Test: yeast display, Sf9 membrane polyspecificity reagent, FACS + sequencing; frameworks hold sequencing errors
How it was run: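 Sorting gates, low and high (top ~1%), were placed on anti-HA fluorescence to track expression and on streptavidin fluorescence to track reagent binding. A clone's polyreactivity label is taken from the gate it came out of. The reagent was 10% biotinylated, detergent-solubilized Sf9 membrane, applied for 1 hour at 4 °C to galactose-induced yeast display cells.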

| Sequence | polyreactivity (PSR sort gate) |
| --- | --- |
| QVQLVESGGGLVQAGGSLRLSCAASGRIFGNTMGWYRQAPGKERELVAAITRSGVSTYYADSVKGRFTISRDNAKNTVYLQMNSLKPEDTAVYYCAKVYSRRSVLSRYGSWGQGTQVTVSS | high polyreactivity |
| QVQLVESGGGLVQAGGSLRLSCAASGRIFGNYAMGWYRQAPGKERELVAAISGGGSTYYADSVKGRFTISRDNAKNTVYLQMKSLKPEDTAVYYCAARFLWSVFGRKGGYWGQGTQVTVSS | low polyreactivity |
| QVQLVESGGGLVQAGGSLRLSCAASGRIFGNYAMGWYRQAPGKERELVAAISGGGSTYYADSVKGRFTISRDNAKNTVYLQMNSLKPEDTAVYYCAARFLWSVFGHKGGYWGQGTQVTVSS | low polyreactivity |
| QVQLVESGGGLVQAGGSLRLSCAASGRIFGNYAMGWYRQAPGKERELVAAITSGARTYYADSVKGRFTLSRDNAKNTVYLQMNSLKPEDTAVYYCAAYHKSYSNRYDYWGQGTHVTVSS | high polyreactivity |
| QVQLVESGGGLVQAGGSLRLSCAASGRIFGPNAMGWYRQAPGKETELVAVISTGGSTNYADSVKGRFTISRDNAKNTVYLQMNSLKPEDTAVYYCAAAYQYERGGLYNRFYYWGQGTQVTVSS | low polyreactivity |
| QVQLVESGGGLVQAGGSLRLSCAASGRIFGPYAMGWYRQAPGKERELVAAISWSGGSTYYADSVKGRFTISRDNAKNTVFLQMNSLKPEDTAVYYCAARERRVYGDRFYKLDYWGQGTQVTVSS | high polyreactivity |
| QVQLVESGGGLVQAGGSLRLSCAASGRIFGPYAMGWYRQAPGKERELVASISYSGGSTYYADSVKGRFTISRDNAKNTVYLQMNSLKPEDTAVYYCARRAVYSKRRYDYWGQGTQVTVSS | low polyreactivity |
| QVQLVESGGGLVQAGGSLRLSCAASGRIFGPYTMGWYRPAPGKERELVARISRRGGSTYYADSVKGRFTISRDNAKNTVYLQMNSLKPEDTAVYYCAAWFTSTRPYDYWGQGTQVTVSS | high polyreactivity |
| QVQLVESGGGLVQAGGSLRLSCAASGRIFGPYTMGWYRQAPGKERELVAAISWSGGSTYYADSVKGRFTISRDNAKNTVYLQMNSLKPEDTAVFYCNADHPFPQYEGGSWGQGTQVTVSS | low polyreactivity |
| QVQLVESGGGLVQAGGSLRLSCAASGRIFGQYAMGWYRQAPGKERELVAAISWRGGTTYYADSVKGRITISRDKAKNTVYLQMNSLKPVDTAVYYCNADVWVYPYDYWGQGTQVTVSS | low polyreactivity |
| QVQLVESGGGLVQAGGSLRLSCAASGRIFGQYAMGWYRQAPGKERELVASISRRGGSKNYADSVKGRFTISRDNAKNTVYLQMNSRKPEDTAVYYCATGRTWILQKLDYWGQGTQVPVSS | high polyreactivity |
| QVQLVESGGGLVQAGGSLRLSCAASGRIFGRNAMGWYRQAPGKERELVAAISSGSGSTYYADSVKGRFTISRDNAKNTVYLQMISLKPEDTAVYYCAATVSTYLAWRGYWGQGTQVTVSS | high polyreactivity |
| QVQLVESGGGLVQAGGSLRLSCAASGRIFGRNARGWYRQAPGKERELVAAISSSGGTYYADSVKGRFTISRYNAKNTVYLQMNSLKPEDTAVYYCNARVRTQQRWVDYWGLGTQVTVSS | high polyreactivity |
| QVQLVESGGGLVQAGGSLRLSCAASGRIFGRNTMGWYRQAPGKERELVASITFGGVSTYYADSVKGRFTISRDNAKNTVYLQMNSLKPEDTAVYYCAAVLINYEGYDSWGQGTQVTVSS | low polyreactivity |
| QVQLVESGGGLVQAGGSLRLSCAASGRIFGRNTMGWYRQAPGKERELVAVISWRGGSTYYADSVKGRFTISRDNAKNTVYLQMNSLKPEDTAVYDCNPKYPFSRRGDYWGQGTQVTVSS | high polyreactivity |
| QVQLVESGGGLVQAGGSLRLSCAASGRIFGRYAMGRYRQAPGKERELVAAISSTVGSTYYADSVKGRFTISRDNAKNTVDLQMNSLKPEDTAVYYCATVWYGSYYWATEYWGQGTQVTVSS | high polyreactivity |
| QVQLVESGGGLVQAGGSLRLSCAASGRIFGRYAMGWYRQAPGKERELVAAITRSGGNTYYADSVKGRFTISRDNAKNTVYLQMNSLKPEDTAVYYCAVRQLDRRSPKYNYWGQGTQVTVSS | high polyreactivity |
| QVQLVESGGGLVQAGGSLRLSCAASGRIFGRYAMGWYRQAPGKERELVATITYTGGSTYYADSVKGRFTISRDNAKNTVYLQMNSLKPEDTAVYSCNAVKPVSRTYDSSYYWGPGTQVTVSS | high polyreactivity |
| QVQLVESGGGLVQAGGSLRLSCAASGRIFGRYTMGWYRQAPGKERELVAGITSSGGRTYYADSVKGRFTISRDNANNTVYLQMNSLKPEDTAVYYCAAKRWSVPSLYNYWGQGTQVTVSS | high polyreactivity |
| QVQLVESGGGLVQAGGSLRLSCAASGRIFGTDVMGWYRQAPGKERELVARITGGGSTNYADSVKGRFTISRDNAKNTVYFQMNSLKPEDTAVYYCARDYGPYLSPENPAPMDYWGQGTQVTVSS | low polyreactivity |
| QVQLVESGGGLVQAGGSLRLSCAASGRIFGTNALGWYRQAPGKERELVATITRGGGNTYYADSVKGRFTISRDNAKNTVYLQMNSLKPEDTAVYYCAAKFHRFAWYSHYDYWGQGTQVTVSS | low polyreactivity |

| Sequence | polyreactivity (PSR sort gate) |
| --- | --- |
| QVQLVESGGGLVQAGGSLRLSCAASGRIFGTNAMGWYRQAPGKERELVADITSGGSTNYADSVKGRFTISRDNAKNTVYLQMNSLKPEDTSVYYCAATWYGYYSRYDFYYWGQGTQVTVSS | low polyreactivity |
| QVQLVESGGGLVQAGGSLRLSCAASGRIFGTNAMGWYRQAPGKESELVATITRGGGNTYYADSVKGRFTISRDNAKNTVYLQMISLKPEDTAVYYCGAKFHRFAWYSHYDYWGQGTQVTVSS | low polyreactivity |
| QVQLVESGGGLVQAGGSLRLSCAASGRIFGTNAMGWYRQAPGKESELVATITRGGGNTYYADSVKGRFTISRDNAKNTVYLQMNSLKQEDTAVYYCNTRRLHGWLYGYEYWGQGTQVTVSS | low polyreactivity |
| QVQLVESGGGLVQAGGSLRLSCAASGRIFGTYAMGWYRQAPGKERELVAAISSSGTSTYYADSVKGRFTISRDNAKNTVYLQMNSLKPEDTAVYYCAADTVSFSILYDYWGQGTQVTVSS | low polyreactivity |
| QVQLVESGGGLVQAGGSLRLSCAASGRIFGTYAMGWYRQAPGKERELVASITDRGDSTYADSVKGRFTISRDNAKNTVYLQMNSLKPEDTAVYYCAVGYNSKLAVGMYYWGQGTQVTVSS | low polyreactivity |
| QVQLVESGGGLVQAGGSLRLSCAASGRIFGTYTMGWYRQAPGKERELVAAISRNGGSTYYADSVKGRITISRDNAKNTVYLQMNSLKPEDTAVYYCNAERRDDRGFDYWGQGTQVTVSS | low polyreactivity |
| QVQLVESGGGLVQAGGSLRLSCAASGRIFGVNAMGWYRQAPGKERELVAAISSGDSTYYADSVKGRFTISRDNAKNTVYLQMTCLKPEDTAVYYCAADVLGTTTTVGGFNYWGQGTQVTVSS | low polyreactivity |
| QVQLVESGGGLVQAGGSLRLSCAASGRIFGVNAMGWYRQAPGKERELVAAISSNGGRTYYADSVKGRFTISRDNAKNTVYLQMNSLKPEDTAVYYCATRSSVGARHYYWGQGTQVTVSS | high polyreactivity |
| QVQLVESGGGLVQAGGSLRLSCAASGRIFGVNAMGWYRQAPGKERELVAAISVSGDSTYYADSVKGRFTISRDNAKNTVYLQMNSLKPEDTAVYYCNAGFTFVPADLTDEYYWGQGTQVTVSS | low polyreactivity |
| QVQLVESGGGLVQAGGSLRLSCAASGRIFGVNAMGWYRQAPGKERELVADISSGGSTYYADSVKGRFTISRDNAKNTVNLQMNSLTPEYTAVYYCAVDKSVYVSYSFYFEYDYWGQGTQVTVSS | low polyreactivity |
| QVQLVESGGGLVQAGGSLRLSCAASGRIFGVYALGWYRQAPGKERELVAVISSGGSTKYADSVKGRFTISRDTAKNTVYLQMNSLKPEDTAVYYCAAADYRFWSRYDYWGQGTQVTVSS | low polyreactivity |
| QVQLVESGGGLVQAGGSLRLSCAASGRIFGVYAMGWSRQAPGKERELVATITSGGSTSYADSVKGRFTISRDNAINTVFLQMNSLKPEDTAVYYCNAPYSFFWQQMNYWGQGTQVTVSS | low polyreactivity |
| QVQLVESGGGLVQAGGSLRLSCAASGRIFGVYAMGWYRQAPGKERELVAAIYSGSSTYYADSVKGRFTISRDNAKNTVYLQMNSLKPEDTAVYYCNADTPYWVRWKYDYWGQGTQVTVSS | low polyreactivity |
| QVQLVESGGGLVQAGGSLRLSCAASGRIFGVYAMGWYRQAPGKERELVADITRGGGSTYYADSVKGRFTISRDNAKNTVYLQMNSLKPEDTAVYYCAARYRFQRGGYYYWGQGTQVTVSS | high polyreactivity |
| QVQLVESGGGLVQAGGSLRLSCAASGRIFGVYAMGWYRQAPGKERELVAGINGGDSTYYADSVKGRFTISRDNAKNTVYLQMNSLKPEDTAVYYCAAEADESGSNYDYWGQGTQVTVSS | low polyreactivity |
| QVQLVESGGGLVQAGGSLRLSCAASGRIFGWNAMGWYRQAPGKERELVAGISSSGGSTYYADSVKGRFTISRDNAKNTVYLQMNSLKPEDTAVYYCARRHYVGYYGYYYWGQGTQVTVSS | high polyreactivity |
| QVQLVESGGGLVQAGGSLRLSCAASGRIFGWYAMGWYRQAPGKERELVAAISRGGGSTYYADSVKGRFTISRDNAKNTVYLQMNSLKPEDTAVYYCARDGGSLSHYHVGTGKFGYWGQGTQVTVSS | low polyreactivity |
| QVQLVESGGGLVQAGGSLRLSCAASGRIFGWYAMGWYRQAPGKERELVAAISSGGRTNYADSVKGRFTISRDNAKNTVYLQMNSLKPEDTAVYYCNARRTYLPYKFGYDYWGQGTQVTVSS | low polyreactivity |
| QVQLVESGGGLVQAGGSLRLSCAASGRIFGYNAMGWYRQAPGKERDLVAAITTSGGSTYYADSVKGRFTISRDNAKNTVYLQMNSLKPEDTAVYYCARDSLQVFYPYASDDYWGQGTQVTVSS | low polyreactivity |
| QVQLVESGGGLVQAGGSLRLSCAASGRIFGYNAMGWYRQAPGKERELVAAIRRRGGTTYYADSVKGRFTISRDNAKNTVYLQMNSLKPEDTAVYYCNTKYPGRGYYWGQGTQVTVSS | high polyreactivity |
